According to PMC13577091:

Key:
[1] = target: CcpA (Streptococcus pneumoniae D39?) (UniProt A0A0H2ZQ65); test: EMSA; conditions: Beyotime chemiluminescent EMSA kit, 5X binding buffer (composition and pH not stated), 10 ul, room temperature, 10 min then 20 min with labeled probe, 6% …
[2] = target: CcpA;HPr (Streptococcus pneumoniae D39?;Streptococcus pneumoniae D39) (UniProt A0A0H2ZQ65+A0A0H2ZP52); test: EMSA; conditions: Beyotime chemiluminescent EMSA kit, 5X binding buffer (composition and pH not stated), 10 ul, room temperature, 10 min then 20 min with labeled probe, 6% …

For “TACACATCTGCTTCTAAAATATTGTTAGAAAACGATTTGACTGTCCTGATCAATTTGTCATGTTCTTATTTCATTTTACTATATTTTTGGTTCGCGGGAAGTCTACTAAGATACTTAAAGATGCAGATAGTGAAAAAAGGTGTAGACATTACCGTAAAAAAGTGATATAATCGTAAGATGTTCAATGTATAGGTGTTAATCATGAGTAGACGTTTTAA (double strand) [Pcps promoter probe]”, the binding [1] was “binds” and the binding [2] was “binds”.
